In patent publication US20060035245, “Modulators of enzymatic nucleic acid elements mobilization” (published 2006):

Target: Tn5 transposase hyperactive mutant (EK54, MA56, LP372) (UniProt Q46731 Q46731:1-476, E54K,M56A,L372P)
Assay: EMSA; complex assembly, inhibited by small molecules with IC50 3.5-46 uM
Conditions: chain copies: 2; label: fluorescein 5' end of transferred strand
Description: For FP analysis, 60 μL reactions were analyzed using the FP protocol on a Wallac Victor V plate reader and a 7% native polyacrylamide gel was used in gel shift assays. For compound screening and subsequent analysis, 1 μL of either DMSO or test compound (final concentration 80 μM) was added to the synapsis reactions. Compound screening was carried out using a Beckman Coulter Biomek FX in a 384 well format. […] IC₅₀ values were obtained by fitting inhibitor titration data (0, 0.01, 0.05, 0.1, 0.5, 2.5, 10, 20, 35, 50, 100, 200, 400, 800 μM) to an exponential decay.

B1: 60 bp Tn5 substrate for inhibitor verification (dsDNA)
DNA 1: GGCCACGACACGCTCCCGCGCTGTCTCTTATACACATCTTGAGTGAGTGAGCATGCATGT
DNA 2: ACATGCATGCTCACTCACTCAAGATGTGTATAAGAGACAGCGCGGGAGCGTGTCGTGGCC
  binding result: binds
